According to patent US20120141538A1 (UNIVERSITE PIERRE ET MARIE CURIE PARIS VI, published 2012):

B1: phage-displayed CX3CL1 mutant with N-terminal sequence QSLVLP (other, not shown: large carriers)
chain: QSLVLPKCNITCSKMTSKIPVALLIHYQQNQASCGKRAIILETRQHRLFCADPKEQWVKDAMQHLDRQAAALTRNG
notes: Selected phage clone (antagonist selection); not tested singly
B2: phage-displayed CX3CL1 mutant with N-terminal sequence VQSVLS (other, not shown: large carriers)
chain: VQSVLSKCNITCSKMTSKIPVALLIHYQQNQASCGKRAIILETRQHRLFCADPKEQWVKDAMQHLDRQAAALTRNG
notes: as for B1
B3: phage-displayed CX3CL1 mutant with N-terminal sequence QLFALS (other, not shown: large carriers)
chain: QLFALSKCNITCSKMTSKIPVALLIHYQQNQASCGKRAIILETRQHRLFCADPKEQWVKDAMQHLDRQAAALTRNG
notes: as for B1
B4: phage-displayed CX3CL1 mutant with N-terminal sequence ILDNGVA (other, not shown: large carriers)
chain: ILDNGVAKCNITCSKMTSKIPVALLIHYQQNQASCGKRAIILETRQHRLFCADPKEQWVKDAMQHLDRQAAALTRNG
notes: as for B1
B5: phage-displayed CX3CL1 mutant with N-terminal sequence ILGRDVA (other, not shown: large carriers)
chain: ILGRDVAKCNITCSKMTSKIPVALLIHYQQNQASCGKRAIILETRQHRLFCADPKEQWVKDAMQHLDRQAAALTRNG
notes: as for B1
B6: phage-displayed CX3CL1 mutant with N-terminal sequence ILDGGVS (other, not shown: large carriers)
chain: ILDGGVSKCNITCSKMTSKIPVALLIHYQQNQASCGKRAIILETRQHRLFCADPKEQWVKDAMQHLDRQAAALTRNG
notes: as for B1
B7: phage-displayed CX3CL1 mutant with N-terminal sequence ILDLGLT (other, not shown: large carriers)
chain: ILDLGLTKCNITCSKMTSKIPVALLIHYQQNQASCGKRAIILETRQHRLFCADPKEQWVKDAMQHLDRQAAALTRNG
notes: as for B1
B8: phage-displayed CX3CL1 mutant with N-terminal sequence QPLFAVA (other, not shown: large carriers)
chain: QPLFAVAKCNITCSKMTSKIPVALLIHYQQNQASCGKRAIILETRQHRLFCADPKEQWVKDAMQHLDRQAAALTRNG
notes: as for B1
B9: phage-displayed CX3CL1 mutant with N-terminal sequence FLQSDVA (other, not shown: large carriers)
chain: FLQSDVAKCNITCSKMTSKIPVALLIHYQQNQASCGKRAIILETRQHRLFCADPKEQWVKDAMQHLDRQAAALTRNG
notes: as for B1
B10: phage-displayed CX3CL1 mutant with N-terminal sequence ILDLGLS (other, not shown: large carriers)
chain: ILDLGLSKCNITCSKMTSKIPVALLIHYQQNQASCGKRAIILETRQHRLFCADPKEQWVKDAMQHLDRQAAALTRNG
notes: as for B1
B11: phage-displayed CX3CL1 mutant with N-terminal sequence AAQGMS (other, not shown: large carriers)
chain: AAQGMSKCNITCSKMTSKIPVALLIHYQQNQASCGKRAIILETRQHRLFCADPKEQWVKDAMQHLDRQAAALTRNG
notes: Selected phage clone (agonist selection); not tested singly
B12: phage-displayed CX3CL1 mutant with N-terminal sequence NPQALS (other, not shown: large carriers)
chain: NPQALSKCNITCSKMTSKIPVALLIHYQQNQASCGKRAIILETRQHRLFCADPKEQWVKDAMQHLDRQAAALTRNG
notes: as for B11
B13: phage-displayed CX3CL1 mutant with N-terminal sequence QPMGVA (other, not shown: large carriers)
chain: QPMGVAKCNITCSKMTSKIPVALLIHYQQNQASCGKRAIILETRQHRLFCADPKEQWVKDAMQHLDRQAAALTRNG
notes: as for B11
B14: phage-displayed CX3CL1 mutant with N-terminal sequence QLLGVS (other, not shown: large carriers)
chain: QLLGVSKCNITCSKMTSKIPVALLIHYQQNQASCGKRAIILETRQHRLFCADPKEQWVKDAMQHLDRQAAALTRNG
notes: as for B11
B15: phage-displayed CX3CL1 mutant with N-terminal sequence QPVALA (other, not shown: large carriers)
chain: QPVALAKCNITCSKMTSKIPVALLIHYQQNQASCGKRAIILETRQHRLFCADPKEQWVKDAMQHLDRQAAALTRNG
notes: as for B11
B16: phage-displayed CX3CL1 mutant with N-terminal sequence QPHGVA (other, not shown: large carriers)
chain: QPHGVAKCNITCSKMTSKIPVALLIHYQQNQASCGKRAIILETRQHRLFCADPKEQWVKDAMQHLDRQAAALTRNG
notes: as for B11
B17: phage-displayed CX3CL1 mutant with N-terminal sequence GPQAMS (other, not shown: large carriers)
chain: GPQAMSKCNITCSKMTSKIPVALLIHYQQNQASCGKRAIILETRQHRLFCADPKEQWVKDAMQHLDRQAAALTRNG
notes: as for B11
B18: phage-displayed CX3CL1 mutant with N-terminal sequence QPVAVS (other, not shown: large carriers)
chain: QPVAVSKCNITCSKMTSKIPVALLIHYQQNQASCGKRAIILETRQHRLFCADPKEQWVKDAMQHLDRQAAALTRNG
notes: as for B11
B19: phage-displayed CX3CL1 mutant with N-terminal sequence QPYGVS (other, not shown: large carriers)
chain: QPYGVSKCNITCSKMTSKIPVALLIHYQQNQASCGKRAIILETRQHRLFCADPKEQWVKDAMQHLDRQAAALTRNG
notes: as for B11
B20: phage-displayed CX3CL1 mutant with N-terminal sequence QPRALP (other, not shown: large carriers)
chain: QPRALPKCNITCSKMTSKIPVALLIHYQQNQASCGKRAIILETRQHRLFCADPKEQWVKDAMQHLDRQAAALTRNG
notes: as for B11
B21: phage-displayed CX3CL1 mutant with N-terminal sequence QPQAVS (other, not shown: large carriers)
chain: QPQAVSKCNITCSKMTSKIPVALLIHYQQNQASCGKRAIILETRQHRLFCADPKEQWVKDAMQHLDRQAAALTRNG
notes: as for B11
B22: phage-displayed CX3CL1 mutant with N-terminal sequence QPVGLS (other, not shown: large carriers)
chain: QPVGLSKCNITCSKMTSKIPVALLIHYQQNQASCGKRAIILETRQHRLFCADPKEQWVKDAMQHLDRQAAALTRNG
notes: as for B11
B23: phage-displayed CX3CL1 mutant with N-terminal sequence QFPGVS (other, not shown: large carriers)
chain: QFPGVSKCNITCSKMTSKIPVALLIHYQQNQASCGKRAIILETRQHRLFCADPKEQWVKDAMQHLDRQAAALTRNG
notes: as for B11
B24: phage-displayed CX3CL1 mutant with N-terminal sequence QPGAVS (other, not shown: large carriers)
chain: QPGAVSKCNITCSKMTSKIPVALLIHYQQNQASCGKRAIILETRQHRLFCADPKEQWVKDAMQHLDRQAAALTRNG
notes: as for B11
B25: phage-displayed CX3CL1 mutant with N-terminal sequence QPSGMS (other, not shown: large carriers)
chain: QPSGMSKCNITCSKMTSKIPVALLIHYQQNQASCGKRAIILETRQHRLFCADPKEQWVKDAMQHLDRQAAALTRNG
notes: as for B11
B26: phage-displayed CX3CL1 mutant with N-terminal sequence QPQGLA (other, not shown: large carriers)
chain: QPQGLAKCNITCSKMTSKIPVALLIHYQQNQASCGKRAIILETRQHRLFCADPKEQWVKDAMQHLDRQAAALTRNG
notes: as for B11
B27: phage-displayed CX3CL1 mutant with N-terminal sequence QVQGVT (other, not shown: large carriers)
chain: QVQGVTKCNITCSKMTSKIPVALLIHYQQNQASCGKRAIILETRQHRLFCADPKEQWVKDAMQHLDRQAAALTRNG
notes: as for B11
B28: phage-displayed CX3CL1 mutant with N-terminal sequence QPVAVA (other, not shown: large carriers)
chain: QPVAVAKCNITCSKMTSKIPVALLIHYQQNQASCGKRAIILETRQHRLFCADPKEQWVKDAMQHLDRQAAALTRNG
notes: as for B11
B29: phage-displayed CX3CL1 mutant with N-terminal sequence QHLGLS (other, not shown: large carriers)
chain: QHLGLSKCNITCSKMTSKIPVALLIHYQQNQASCGKRAIILETRQHRLFCADPKEQWVKDAMQHLDRQAAALTRNG
notes: as for B11
B30: phage-displayed CX3CL1 mutant with N-terminal sequence QPGGVS (other, not shown: large carriers)
chain: QPGGVSKCNITCSKMTSKIPVALLIHYQQNQASCGKRAIILETRQHRLFCADPKEQWVKDAMQHLDRQAAALTRNG
notes: as for B11
B31: phage-displayed CX3CL1 mutant with N-terminal sequence QPSALS (other, not shown: large carriers)
chain: QPSALSKCNITCSKMTSKIPVALLIHYQQNQASCGKRAIILETRQHRLFCADPKEQWVKDAMQHLDRQAAALTRNG
notes: as for B11
B32: phage-displayed CX3CL1 mutant with N-terminal sequence QLQGLA (other, not shown: large carriers)
chain: QLQGLAKCNITCSKMTSKIPVALLIHYQQNQASCGKRAIILETRQHRLFCADPKEQWVKDAMQHLDRQAAALTRNG
notes: as for B11
B33: phage-displayed CX3CL1 mutant with N-terminal sequence QSLGVS (other, not shown: large carriers)
chain: QSLGVSKCNITCSKMTSKIPVALLIHYQQNQASCGKRAIILETRQHRLFCADPKEQWVKDAMQHLDRQAAALTRNG
notes: as for B11
B34: phage-displayed CX3CL1 mutant with N-terminal sequence QPSALT (other, not shown: large carriers)
chain: QPSALTKCNITCSKMTSKIPVALLIHYQQNQASCGKRAIILETRQHRLFCADPKEQWVKDAMQHLDRQAAALTRNG
notes: as for B11
B35: phage-displayed CX3CL1 mutant with N-terminal sequence QSPGMS (other, not shown: large carriers)
chain: QSPGMSKCNITCSKMTSKIPVALLIHYQQNQASCGKRAIILETRQHRLFCADPKEQWVKDAMQHLDRQAAALTRNG
notes: as for B11
B36: phage-displayed CX3CL1 mutant with N-terminal sequence QPYGMS (other, not shown: large carriers)
chain: QPYGMSKCNITCSKMTSKIPVALLIHYQQNQASCGKRAIILETRQHRLFCADPKEQWVKDAMQHLDRQAAALTRNG
notes: as for B11

Molecular target: T1, human CX3CR1 receptor (human, UniProt P49238 1-355)
T1 construct: Expressed on stably transfected HEK or CHO cells, or endogenous on human PBMC (CD8+ T cells, NK cells); also called HEK-CX3CR1 cells; CHO-CX3CR1 cells
T1 sequence: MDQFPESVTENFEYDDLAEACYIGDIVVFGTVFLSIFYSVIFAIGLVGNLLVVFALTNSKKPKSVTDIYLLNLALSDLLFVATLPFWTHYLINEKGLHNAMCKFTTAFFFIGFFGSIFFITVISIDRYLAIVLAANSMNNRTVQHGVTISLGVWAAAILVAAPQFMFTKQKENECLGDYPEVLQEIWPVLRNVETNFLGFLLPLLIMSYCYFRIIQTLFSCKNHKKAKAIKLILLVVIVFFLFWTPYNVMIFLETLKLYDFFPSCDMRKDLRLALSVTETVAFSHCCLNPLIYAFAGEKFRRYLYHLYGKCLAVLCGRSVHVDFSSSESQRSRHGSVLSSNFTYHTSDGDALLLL
Assay: phage display selection on HEK-CX3CR1 cells, elution with soluble CX3CL1
Procedure: Phage particles are represented as cylinders (encapsulated phage genome) with multiple heads (pIII-CX3CL1 mutant fusion). […] (3) Stringent washing was used to remove nonspecifically bound phage. (4) An excess of soluble CX3CL1 (sCX3CL1) was added to remove surface-associated phage. Eluted phages were allowed to infect E. coli, and stocks of selected phages were prepared to be used in a new round of selection (steps 1 to 4).
A phage library of CX3CL1 mutants (10¹⁰ CFU) was directly incubated with 5.10⁶ HEK-CX3CR1 or HEK-CCR5 cells growing in 25 cm² tissue culture flasks (Becton Dickinson, Le Pont de Claix, France) at 37° C. at 5% CO₂ in 5 ml of supplemented RPMI-1640 medium. After 1 h, cells were washed 10 times at room temperature with 10 ml of phosphate-buffered saline (PBS) and then scraped from the plate into 10 ml of PBS-0.5% BSA. Cells were then pelleted and incubated for 20 min on ice in elution buffer consisting of an excess of soluble CX3CL1 (10 μM in 100 μl PBS-BSA). Cells were centrifuged (1000×g for 5 min) and supernatant was mixed with log-phase E. coli TG1 for production and purification of stock phage to be used in further rounds of selection, as described by Hartley et al. (2003, J Virol 77, 6637-44).

Question: Does B1 bind?
Answer: binds

Question: Does B2 bind?
Answer: binds

Question: Does B3 bind?
Answer: binds

Question: Does B4 bind?
Answer: binds

Question: Does B5 bind?
Answer: binds

Question: Does B6 bind?
Answer: binds

Question: Does B7 bind?
Answer: binds

Question: Does B8 bind?
Answer: binds

Question: Does B9 bind?
Answer: binds

Question: Does B10 bind?
Answer: binds

Molecular target: T1, human CX3CR1 receptor
Assay: phage display selection on HEK-CX3CR1 cells, recovery of endocytosed phages

Question: Does B11 bind?
Answer: binds

Question: Does B12 bind?
Answer: binds

Question: Does B13 bind?
Answer: binds

Question: Does B14 bind?
Answer: binds

Question: Does B15 bind?
Answer: binds

Question: Does B16 bind?
Answer: binds

Question: Does B17 bind?
Answer: binds

Question: Does B18 bind?
Answer: binds

Question: Does B19 bind?
Answer: binds

Question: Does B20 bind?
Answer: binds

Question: Does B21 bind?
Answer: binds

Question: Does B22 bind?
Answer: binds

Question: Does B23 bind?
Answer: binds

Question: Does B24 bind?
Answer: binds

Question: Does B25 bind?
Answer: binds

Question: Does B26 bind?
Answer: binds

Question: Does B27 bind?
Answer: binds

Question: Does B28 bind?
Answer: binds

Question: Does B29 bind?
Answer: binds

Question: Does B30 bind?
Answer: binds

Question: Does B31 bind?
Answer: binds

Question: Does B32 bind?
Answer: binds

Question: Does B33 bind?
Answer: binds

Question: Does B34 bind?
Answer: binds

Question: Does B35 bind?
Answer: binds

Question: Does B36 bind?
Answer: binds
